Measurements taken from patent publication US11015206B2, “Compositions and methods comprising sequences having hydroxyphenylpyruvate dioxygenase (HPPD) activity” (PIONEER HI-BRED INTERNATIONAL, INC., priority 2014, dated 2021).

Experiments:
Format in all cases: biochemical, Z. mays
[1] = tested on: 4-hydroxyphenylpyruvate dioxygenase (HPPD); test: ON rate ratio: HPPD reaction rate with vs without inhibitor in the 70 to 90 second interval; settings: Table 7; tembotrione; combinatorial variants
Description: (§1) Higher KD (reduced affinity or increased insensitivity) can be attained with a numerically smaller ON rate, a larger OFF rate or both. To detect and quantify changes in kON and kOFF, observations of the time course of an HPPD reaction as inhibitor binds to and inactivates the enzyme (kON), or is released from a pre-formed enzyme-inhibitor complex (kOFF) were used, as shown in FIGS. 13A and 13B. In practice, a quantitative indicator of kON was obtained by monitoring the time courses of HPPD reactions containing 60 or 120 nM HPPD and 100 μM HPP in the presence and absence of 4 μM inhibitor (e.g., mesotrione or tembotrione). The ratio of the reaction rate with inhibitor to that without inhibitor during the 70 to 90 second interval of the reaction was termed the “ON rate ratio”. The smaller the actual kON, the more slowly the HPPD reaction decelerates and the higher the value is for the ON rate ratio. FIGS. 13A and 13B illustrate the contrasting reaction velocity in the 70-90 sec interval for maize wild-type HPPD (FIG. 13A) versus an improved variant (SEQ ID NO:78) (FIG. 13B).

[2] = tested on: 4-hydroxyphenylpyruvate dioxygenase (HPPD); test: OFF rate ratio: release of inhibitor from pre-formed enzyme-inhibitor complex; settings: Table 7; tembotrione; combinatorial variants
Method: A quantitative indicator of kOFF can be obtained by observing the time course of an HPPD reaction as inhibitor is released from a pre-formed enzyme-inhibitor complex. HPPD and inhibitor were incubated together at concentrations of 7.2 and 8 μM, respectively. Incubations with the same concentrations of enzyme but no inhibitor were done in parallel. After 1 hr at room temperature, 5 to 10 μl of the enzyme-inhibitor complex was dispensed into the wells of the assay plate. Reactions were started with the addition of 290 to 295 μl of 25 mM Hepes, pH 7, 2 mM ascorbate, 10 μM FeSO4, 100 μM HPP and 50 nM HGD. The reactions were monitored at 320 nm for 12 min. Reaction velocity accelerates as inhibitor is released from the enzyme until a steady state is reached, during which the reaction velocity is constant. The ratio of the steady state rate in mixtures containing herbicidal inhibitor to the initial velocity of mixtures lacking inhibitor is termed the “OFF rate ratio”.
Another parameter to record is the time span required for the reactions with inhibitor to reach the steady state. FIGS. 13C and 13D illustrate the contrasting time span in which maize wild-type HPPD (FIG. 13C) and an improved variant (SEQ ID NO:78) (FIG. 13D) dissociated from mesotrione, as indicated by the accelerating reaction rates. The plateau of absorbance is due to exhaustion of the substrate. With the improved variant, not only was the steady state attained in a shorter time span (80 sec for the variant versus 280 sec for wild type), the velocity attained was twice as high as with wild type, though the enzymes were present at the same concentration (240 nM). This is because a larger fraction of the variant enzyme is free of inhibitor compared to the wild-type enzyme, and the kcat for both is nearly the same, about 220 min^−1.

[3] = tested on: 4-hydroxyphenylpyruvate dioxygenase (HPPD); test: Insensitivity parameter (ON × OFF) and trait fitness (ON × OFF × kcat/KM or × kcat); set-up: key to ON × OFF / Insensitivity, mesotrione, ON × OFF / Insensitivity, tembotrione, ON × OFF / Insensitivity, topramezone, ON × OFF / Insensitivity, sulcotrione, ON × OFF / Insensitivity, isoxaflutole (DKN), ON × OFF: insensitivity = ON rate ratio × OFF rate ratio (surrogate for KD)
Description: Because substrate and inhibitors bind in the same site, the high concentration of substrate present may competitively trap the inhibitor and prevent it from binding again. To be sure that improvement in ON rates is being taken into account, the ON and OFF rate ratios were multiplied, creating an “insensitivity parameter” that is a surrogate for KD. KD is expressed as kOFF/kON, but because the ON rate ratio is an inverse parameter (the higher the value of ON rate ratio, the lower the value of the represented phenomenon, kON), it is appropriate to multiply ON and OFF rate ratios rather then divide OFF rate ratio by ON rate ratio. Another parameter, which quantifies the combined catalytic and insensitivity properties of the enzyme is kcat/KM×ON rate ratio×OFF rate ratio, and is termed “trait fitness”. This parameter is intended to have a meaning similar to the commonly used expression kcat/KM×Ki.

[4] = tested on: 4-hydroxyphenylpyruvate dioxygenase (HPPD); test: Estimate of kcat from initial rate at saturating hydroxyphenylpyruvate without inhibitor (ON rate ratio assay)
Description: as §1
Thirty nine variants were desensitized to tembotrione compared with the backbone enzyme, Round 7, variant 9070 (SEQ ID NO:2) and all were desensitized compared with maize wild type HPPD (SEQ ID NO:1). Because the assay for ON rate ratio includes an initial rate measurement at saturating hydroxyphenylpyruvate without inhibitor and with known enzyme concentration, an estimate of kcat was available. Taking into account kcat and insensitivity parameters, 30 variants were selected for measurement of substrate saturation kinetic parameters and re-evaluation of insensitivity to tembotrione. The kinetic and insensitivity parameters were determined as described in Example 1, and were multiplied to generate the “trait fitness” parameter. The complete list of variants, i.e., of selected single substitutions in SEQ ID NO:2, analyzed with multiple inhibitors and the results obtained are shown in Table 6. The same set of 30 variants were evaluated for insensitivity to mesotrione, sulcotrione, isoxaflutole (its active diketonitrile form, abbreviated DKN in Table 6) and topramezone.

[5] = Table 7, tembotrione, combinatorial variants
[6] = Table 7, combinatorial variants

B1: P056028-F-01 (protein)
chain: MGPTPTATAAGAAVAAASAAEQAAFRLVGHRNFVRFNPRSDRFQTLAFHHVELWCADAASAAGRFSFALGVPLAARSDLSTGNSAHASLLLRSGSLSLLFTAPYAHGADAATAALPSFSAAAARRFAADHGLAVRAVALRVADAEDAFRASVAAGARPAFGPVDLGRGFRLAEVELYGDVVLRYVSYPDGGAGEPFLPGFEGVASPGAADYGLSRFDHIVGNVPELAPAAAYMAGFTGFHEFAEFTTEDVGTTESGLNSMALANNSENVLLPLNEPVHGTKRRSQIQTFLDHHGGPGVQHIALASDDVLRTLREMRARSAMGGFEFLPPPLSDYYDGVRRCAGDVLTEAQINECQELGVMVDRDDEGVLLQIFTKPVGDRPTFFLEIIQRIGCMEKDEKGQEYQKGGCGGFGKGNFGQLFRSIEDYEKSLEAKRAAAAATAQGS
modifications: Zea mays variant form created by artificial means.
- ON rate ratio [1]: 0.718
- OFF rate ratio [2]: 0.304
- ON × OFF ([3]; Megatable 3, shuffled variants): 0.218
- ON × OFF × kcat ([3]; Megatable 3, shuffled variants): 6.82
- ON × OFF [3, 5]: 0.218
- ON × OFF × kcat [3, 5]: 6.82
- kcat ([4]; Megatable 3, shuffled variants): 0.522 s⁻¹
- kcat [4, 6]: 0.522 s⁻¹

B2: P056028-D-08 (protein)
chain: MGPTPTATAAGAAVAAASAAEQAAFRLVGHRNFVRFNPRSDRFQTLAFHHVELWCADAASAAGRFSFALGVPLAARSDLSTGNSAHASLLLRSGSLSLLFTAPYAHGADAATAALPSFSAAAARRFAADHGLAVRAVALRVADAEDAFRASVAAGARPAFGPVDLGRGFRLAEVELYGDVVLRYVSYPDGGAGEPFLPGFEGVASPGAADYGLSRFDHIVGNVPELAPAAAYMAGFTGFHEFAEFTTEDVGTTESGLNSMALANNSENVLLPLNEPVHGTKRRSQIQTFLDHHGGPGVQHIALASDDVLRTLREMRARSAMGGFEFLPPPLSDYYDGVRKCAGDVLTEAQINECQELGVMVDRDDEGVLLQIFTKPVGDRPTFFLEIIQRIGCMEKDEKGQEYQKGGCGGFGKGNFGQLFKSIEDYEKSLEAKRAAAAATAQGS
modifications: Zea mays variant form created by artificial means.
- ON rate ratio [1]: 0.681
- OFF rate ratio [2]: 0.361
- ON × OFF ([3]; Megatable 3, shuffled variants): 0.246
- ON × OFF × kcat ([3]; Megatable 3, shuffled variants): 6.77
- ON × OFF [3, 5]: 0.246
- ON × OFF × kcat [3, 5]: 6.77
- kcat ([4]; Megatable 3, shuffled variants): 0.458 s⁻¹
- kcat [4, 6]: 0.458 s⁻¹

B3: P056028-C-01 (protein)
chain: MGPTPTATAAGAAVAAASAAEQAAFRLVGHRNFVRFNPRSDRFQTLAFHHVELWCADAASAAGRFSFALGVPLAARSDLSTGNSAHASLLLRSGSLSLLFTAPYAHGADAATAALPSFSAAAARRFAADHGLAVRAVALRVADAEDAFRASVAAGARPAFGPVDLGRGFRLAEVELYGDVVLRYVSYPDGAAGEPFLPGFEGVASSGAADLGLSRFDHIVGNVPELAPAAAYMAGFTGFHEFAEFTTEDVGTTESGLNSMALANNSENVLLPLNEPVHGTKRRSQIQTFLDHHGGPGVQHIALASDDVLRTLREMRARSAMGGFEFLPPPLSDYYDGVRRCAGDVLTEAQINECQELGVMVDRDDEGVLLQIFTKPVGDRPTFFLEIIQRIGCMEKDEKGQEYQKGGCGGFGKGNFGQLFKSIEDYEKSLEAKQAAAAATAQGS
modifications: Zea mays variant form created by artificial means.
- ON rate ratio [1]: 0.742
- OFF rate ratio [2]: 0.310
- ON × OFF ([3]; Megatable 3, shuffled variants): 0.230
- ON × OFF × kcat ([3]; Megatable 3, shuffled variants): 5.95
- ON × OFF [3, 5]: 0.230
- ON × OFF × kcat [3, 5]: 5.95
- kcat ([4]; Megatable 3, shuffled variants): 0.432 s⁻¹
- kcat [4, 6]: 0.432 s⁻¹

B4: P056028-E-02 (protein)
chain: MGPTPTATAAGAAVAAASAAEQAAFRLVGHRNFVRFNPRSDRFQTLAFHHVELWCADAASAAGRFSFALGVPLAARSDLSTGNSAHASLLLRSGSLSLLFTAPYAHGADAATAALPSFSAAAARRFAADHGLAVRAVALRVADAEDAFRASVAAGARPAFGPVDLGRGFRLAEVELYGDVVLRYVSYPDGAAGEPFLPGFEGVASSGAADYGLSRFDHIVGNVPELAPAAAYMAGFTGFHEFAEFTTEDVGTTESGLNSMALANNSENVLLPLNEPVHGTKRRSQIQTFLDHHGGPGVQHIALASDDVLRTLREMRARSAMGGFEFLPPPLSDYYDGVRRCAGDVLTEAQINECQELGVMVDRDDEGVLLQIFTKPVGDRPTFFLEIIQRIGCMEKDEKGQEYQKGGCGGFGKGNFGQLFKSIEDYEKSLEAKQAAAAATAQGS
modifications: Zea mays variant form created by artificial means.
- ON rate ratio [1]: 0.761
- OFF rate ratio [2]: 0.326
- ON × OFF ([3]; Megatable 3, shuffled variants): 0.248
- ON × OFF × kcat ([3]; Megatable 3, shuffled variants): 5.86
- ON × OFF [3, 5]: 0.248
- ON × OFF × kcat [3, 5]: 5.86
- kcat ([4]; Megatable 3, shuffled variants): 0.393 s⁻¹
- kcat [4, 6]: 0.393 s⁻¹

B5: P056028-C-07 (protein)
chain: MGPTPTATAAGAAVAAASAAEQAAFRLVGHRNFVRFNPRSDRFQTLAFHHVELWCADAASAAGRFSFALGVPLAARSDLSTGNSAHASLLLRSGSLSLLFTAPYAHGADAATAALPSFSAAAARRFAADHGLAVRAVALRVADAEDAFRASVAAGARPAFGPVDLGRGFRLAEVELYGDVVLRYVSYPDGGAGEPFLPGFEGVASPGAADYGLSRFDHIVGNVPELAPAAAYMAGFTGFHEFAEFTTEDVGTTESGLNSMALANNSENVLLPLNEPVHGTKRRSQIQTFLDHHGGPGVQHIALASDDVLRTLREMRARSAMGGFEFLPPPLSDYYDGVRKCAGDVLTEAQINECQRLGVMVDRDDEGVLLQIFTKPVGDRPTFFLEIIQRIGCMEKDEKGQEYQKGGCGGFGKGNFGQLFKSIEDYEKSLEAKRAAAAATAQGS
modifications: Zea mays variant form created by artificial means.
- ON rate ratio [1]: 0.714
- OFF rate ratio [2]: 0.382
- ON × OFF ([3]; Megatable 3, shuffled variants): 0.273
- ON × OFF × kcat ([3]; Megatable 3, shuffled variants): 5.80
- ON × OFF [3, 5]: 0.273
- ON × OFF × kcat [3, 5]: 5.80
- kcat ([4]; Megatable 3, shuffled variants): 0.353 s⁻¹
- kcat [4, 6]: 0.353 s⁻¹

B6: P056028-C-05 (protein)
chain: MGPTPTATAAGAAVAAASAAEQAAFRLVGHRNFVRFNPRSDRFQTLAFHHVELWCADAASAAGRFSFALGVPLAARSDLSTGNSAHASLLLRSGSLSLLFTAPYAHGADAATAALPSFSAAAARRFAADHGLAVRAVALRVADAEDAFRASVAAGARPAFGPVDLGRGFRLAEVELYGDVVLRYVSYPDGAAGEPFLPGFEGVASPGAADYGLSRFDHIVGNVPELAPAAAYMAGFTGFHEFAEFTTEDVGTTESGLNSMALANNSENVLLPLNEPVHGTKRRSQIQTFLDHHGGPGVQHIALASDDVLRTLREMRARSAMGGFEFLPPPLSDYYDGVRKCAGDVLTEAQINECQRLGVMVDRDDEGVLLQIFTKPVGDRPTFFLEIIQRIGCMEKDEKGQEYQKGGCGGFGKGNFGQLFKSIEDYEKSLEAKQAAAAATAQGS
modifications: Zea mays variant form created by artificial means.
- ON rate ratio [1]: 0.715
- OFF rate ratio [2]: 0.375
- ON × OFF ([3]; Megatable 3, shuffled variants): 0.268
- ON × OFF × kcat ([3]; Megatable 3, shuffled variants): 5.80
- ON × OFF [3, 5]: 0.268
- ON × OFF × kcat [3, 5]: 5.80
- kcat ([4]; Megatable 3, shuffled variants): 0.362 s⁻¹
- kcat [4, 6]: 0.362 s⁻¹
